These results are taken from patent US6090381.

For assay [1], the target named is target antigen of the LL2 antibody (not given). Kind of assay: cell surface binding assay, calculated from the ID50 values; cells not named.
Assay [2] has the same target. Kind of assay: competitive binding assay, F(ab')2; competitor and antigen not named. Also noted: unit not given beside the values.
The target is the same in assay [3]. Kind of assay: competitive binding assay, F(ab')2; from the ID50 against unmodified control F(ab')2.
For assay [4] the target is unchanged. Kind of assay: ELISA, calculated from ID50 values; coated reagent not named.

Turning to F(ab')2 fragment of hLL2 (antibody), the Immunoreactivity (%), Cell Binding in assay [1] was 100%. For the same substance, the ID50 in assay [2] worked out at 0.384. This substance had an Immunoreactivity, % of hLL2 in assay [3] of 100%. In addition, the Immunoreactivity (%), ELISA in assay [4] is 100%.
In the case of “dextran-doxorubicin-conjugated F(ab')2 fragment of hLL2 (antibody)”, the Immunoreactivity (%), Cell Binding in assay [1] is 41.9%. In addition, in assay [4], the Immunoreactivity (%), ELISA is 42.2%.
